For experiment [1], the target named is recombinant hGM-CSF expressed in E. coli (Fa. Biomol #2514) (human, UniProt P04141 18-144). The experiment in a line: cell-based or functional assay.
Experiment [2] concerns the target T1, recombinant hGM-CSF derived from yeast (Leukine, Berlex) (human, UniProt P04141 18-144).
T1 construct: Bought product; also called yeast hGM-CSF (Leukine); yeast GM-CSF (Leukine)
Description: SPR (Biacore), antibody captured via immobilised protein G, rhGM-CSF injected. As for the experimental part:
To calculate affinity constants for recombinant hGM-CSF binding to anti-hGM-CSF monoclonal antibodies, surface plasmon resonance (SPR) was performed on a Biacore System™ (FIG. 2).
In the method to analyze the interaction between antibodies and antigens, the purified antibodies were captured on a sensor chip via interaction with protein G immobilized to sensor chip surface, and then recombinant antigens were injected to the sensor chip. Purified antibodies were used and recombinant hGM-CSF was used as an antigen.
In general terms: SPR reads the build-up and loss of mass on a sensor chip optically.

In general, Kd refers to the concentration at which binding is half-saturated.

T1 sequence (P04141 other isoform, or with tags, fused parts or gaps limits assumed): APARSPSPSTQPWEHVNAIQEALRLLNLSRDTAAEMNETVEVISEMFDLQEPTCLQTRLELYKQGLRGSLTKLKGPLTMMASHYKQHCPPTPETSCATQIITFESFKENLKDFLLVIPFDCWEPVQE
recombinant hGM-CSF expressed in E. coli (Fa. Biomol #2514), sequence (P04141 18-144 limits assumed): as the sequence (P04141 other isoform, or with tags, fused parts or gaps limits assumed) above, with L23R counted along it

B1: EV1018 (antibody, human IgG1, lambda)
heavy: not shown
light: QSALTQETSVSGTVGQKVTLSCIGNNNNIGSHAVGWYQQISRGAPKMVLFGRSPPSGVPDRFSGSKSGTTASLIISGLQPEDEADYYCSTWDSSLSAVVFGGGTKLTVLRQPKAAPSVTLFPPSSEELQANKATLVCLISDFYPGAVTVAWKADSSPVKAGVETTTPSKQSNNKYAASSYLSLTPEQWKSHRSYSCQVTHEGSTVEKTVAPTECS
notes: also called wild-type EV1018; WT EV1018
For the molecule B1, in experiment [1], the “IC50 in TF-1 assay, hGM-CSF (E. coli) at 1.0 ng/ml final concentration” value is 0.02 nM and the “Ratio: Reference antibody to antibody of interest (IC50 of BVD2-21C11 over IC50 of EV1018, TF-1 assay)” value came out at 413. Further, the equilibrium dissociation constant (Kd) in experiment [2] amounted to 0.23 nM.

B2: EV1019 (antibody, human IgG1, lambda, V domains shown)
VH: QAQLVESGGGVVKPGGSLRLSCISSKFTFSSHAMHWVRQAPGKGLEWVAVIWHDGSKKYYADSVKGRFSVSRDNSKNTLFLQMDSLRAEDTAVYFCGKEWVGGTCDSWGQGTLVIVSS
VL: QPALTQEASVSGTVGQTVTLLCSGNSSNIGSYAVGWYQQISRGAPKIVVFGKSPASGIPDRFSGSKSGTTASLLVSGLQPEDEADYYCSTWDSRLSAVLFGGGTKLTVLR
notes: also called EV1019 Batch 1; EV1019 Batch 2
With B2, the Kd in experiment [2] is 0.36 nM.

For the origin of these results see US20140205611A1 (EVEC, published 2014).
